Laboratory results from patent publication US11732029B2, “Methods and compositions for the treatment of wounds” (The University of Chicago, priority 2017, dated 2023).
Read-outs that look alike come from different tables or passages of the source.

Columns and labels:
[1] = Ishihara et al. 2018; Martino et al. 2013; cited from earlier work
PlGF-2 = target: T1, PlGF-2 (Homo sapiens, UniProt P49763); assay: GF binding to recombinant laminin LG domain protein and synthesized laminin HBD peptides (ELISA); parameters: All growth factors (GFs) and chemokines were purchased in their mature forms; purchased PeproTech; host or cells: Escherichia coli; conditions: plate coated with LG domain protein or peptide, 1 μg/mL GF, vs BSA-coated wells
T1 sequence (P49763 19-170 isoform P49763-3 limits assumed): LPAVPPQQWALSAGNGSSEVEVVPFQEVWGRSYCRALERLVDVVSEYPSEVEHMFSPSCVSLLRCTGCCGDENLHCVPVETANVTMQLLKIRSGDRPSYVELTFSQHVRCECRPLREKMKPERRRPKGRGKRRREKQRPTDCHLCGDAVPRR
Protocol: (§1) ELISA tests were performed as described above. In brief, ELISA plates were coated with 1 μg/mL of laminin alpha 3 LG domain recombinant protein, laminin alpha 4 LG domain recombinant protein (R&D systems), laminin alpha 5 LG domain recombinant protein (LD BioPharma), or laminin peptide (sequences are described in Table 1, chemically synthesized by Genscript) in PBS for 2 hrs at 37° C. 1 μg/mL of BSA served as non-binding protein control. After blocking with 2% BSA PBS-0.05% Tween 20 (PBS-T) solution, 1 μg/mL of the recombinant human proteins (VEGF-A121, VEGF-A165, PlGF-1, PlGF-2, PDGF-BB or FGF-2) or 10 μg/mL of biotinylated heparin (Sigma-Aldrich) were added. Bound GF was detected with biotinylated antibodies for human VEGF, PlGF, PDGF-BB, or FGF-2 (R&D Systems). The antibodies were detected by streptavidin-HRP (R&D Systems).

FGF-2 = FGF-2 (Homo sapiens, UniProt P09038); assay: as above; parameters: All growth factors (GFs) and chemokines were purchased in their mature forms; purchased PeproTech; host or cells: Escherichia coli; conditions: plate coated with LG domain protein or peptide, 1 μg/mL GF, vs BSA-coated wells
Protocol: as §1

VEGF-A165 [2] = target: T2, VEGF-A165 (Homo sapiens, UniProt P15692); assay: as above; conditions: plate coated with LG domain protein or peptide, 1 μg/mL GF, vs BSA-coated wells
T2 construct: All growth factors (GFs) and chemokines were purchased in their mature forms; purchased PeproTech; host or cells: Escherichia coli
T2 sequence (P15692 27-191 isoform P15692-4 limits assumed): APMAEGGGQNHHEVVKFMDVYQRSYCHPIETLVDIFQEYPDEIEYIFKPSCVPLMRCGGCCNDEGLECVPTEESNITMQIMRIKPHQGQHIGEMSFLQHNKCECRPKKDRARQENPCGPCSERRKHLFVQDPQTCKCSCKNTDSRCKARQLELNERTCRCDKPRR
Protocol: as §1

PDGF-BB [3] = target: T3, PDGF-BB (Homo sapiens, UniProt P01127); assay: as above; conditions: plate coated with LG domain protein or peptide, 1 μg/mL GF, vs BSA-coated wells
T3 construct: All growth factors (GFs) and chemokines were purchased in their mature forms; purchased PeproTech; host or cells: Escherichia coli
Protocol: as §1

GFs = assay: GF binding to synthesized laminin peptides (ELISA), all tested GFs together; parameters: species or system human; key to Interaction with GFs: ++ indicates high affinities; + indicates medium/low affinities; conditions: summary Table 2
Protocol: as §1

HUVEC = assay: Cell adhesion assay, HUVEC on laminin peptide coated plates; assay type: cell-based, human; parameters: key to Cell adhesion HUVECs: ++ indicates high affinities; + indicates medium/low affinities
Protocol: (§2) 96-well plates (non-tissue culture treated, Greiner Bio-one) were pre-coated with 1 μg/mL with laminin HBD peptides in PBS for 2 hrs at 37° C., followed by blocking with 2% BSA PBS for 1 h at RT. Cell adhesion assays were performed using human lung fibroblasts (Lonza) in FGM-2 medium (Lonza) or human umbilical vein endothelial cells (HUVEC; Lonza) in EGM-2 medium (Lonza) supplemented with 1% fetal bovine serum (FBS) and […] VEGF-A165, with or without 5 mM EDTA (Sigma-Aldrich). Cells were plated at 3000 cells/well on laminin peptide pre-coated plates and incubated for 30 min at 37° C., 5% CO2. Then, the medium was removed, and wells were quickly washed three times with PBS. Cell numbers were quantified using a CyQUANT assay, according to the manufacturer's instructions (Invitrogen). All cell lines were checked for mycoplasma contamination and used in passages from 5 to 8.

human lung fibroblasts = assay: Cell adhesion assay, fibroblasts on laminin peptide coated plates; assay type: cell-based; parameters: key to Cell adhesion Fibroblasts: ++ indicates high affinities; + indicates medium/low affinities
Protocol: as §2

HUVEC cells = assay: Migration assay (transwell); assay type: cell-based, human; conditions: 6 hr, 30 ng/mL VEGF-A165 with or without 0.1 μM peptide
Protocol: A migration assay was performed as described previously^3. A QCM 24-Well Colorimetric Cell Migration Assay kit was used to perform migration assay. Both sides of inserts were coated with 0.1 μM of bovine collagen I (C4243, Sigma-Aldrich) for 1 hr at 37° C. Then, the inserts were washed with water, dried in a laminar flow cabinet and disposed on 24-well cell culture plate covers. Solutions containing 30 ng/mL of VEGF-A165 preincubated with or without 0.1 μM of α33043-3067 peptide in medium (MCDB-131, 0.05% BSA) were added to the bottom side of the transwell (500 μL/well). Directly thereafter, HUVEC cells in medium containing 0.05% BSA (300 μL/transwell, 4×10^4 cells/transwell) were added to the transwell upper parts. After 6 hr, migrated cells were stained and absorbance at 560 nm was measured according to the manufacturer's instructions.

[4] = test system: syndecan-1, syndecan-2, syndecan-3, syndecan-4; assay: Recombinant syndecan binding to synthesized laminin HBD peptides (ELISA); parameters: species or system human; key to Interaction with Syndecans: ++ indicates high affinities; + indicates medium/low affinities
Protocol: ELISA tests were performed as described above. In brief, ELISA plates were coated with 1 μg/mL laminin peptide (sequences are described in Table 1, chemically synthesized by Genscript) in PBS for 2 hrs at 37° C. 1 μg/mL of BSA served as non-binding protein control. After blocking with 2% BSA PBS-T solution, 1 μg/mL of the recombinant human syndecan-1, syndecan-2, syndecan-3, syndecan-4 (all syndecan proteins are histidine-tagged; SinoBiological) were added. Bound GF was detected with anti-histidine tag antibody (1:1000 dilution, BioLegend).

[5] = Heparin binding to synthesized laminin peptides (ELISA); parameters: key to Interaction with Heparin: ++ indicates high affinities; + indicates medium/low affinities
Protocol: as §1

[6] = test system: wound healing in the db/db mouse; conditions: cited from earlier work
VEGF-A121 = target: T4, VEGF-A121 (Homo sapiens, UniProt P15692); assay: GF binding to recombinant laminin LG domain protein and synthesized laminin HBD peptides (ELISA); parameters: All growth factors (GFs) and chemokines were purchased in their mature forms; purchased PeproTech; host or cells: Escherichia coli; conditions: plate coated with LG domain protein or peptide, 1 μg/mL GF, vs BSA-coated wells
T4 sequence (P15692 27-147 isoform P15692-9 limits assumed): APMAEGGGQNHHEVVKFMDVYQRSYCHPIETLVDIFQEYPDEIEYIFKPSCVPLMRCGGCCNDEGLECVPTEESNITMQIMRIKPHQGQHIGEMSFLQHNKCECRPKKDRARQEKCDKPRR
Protocol: as §1

PlGF-1 = target: T5, PlGF-1 (Homo sapiens, UniProt P49763); assay: as above; parameters: All growth factors (GFs) and chemokines were purchased in their mature forms; purchased PeproTech; host or cells: Escherichia coli; conditions: plate coated with LG domain protein or peptide, 1 μg/mL GF, vs BSA-coated wells
T5 sequence (P49763 19-149 isoform P49763-2 limits assumed): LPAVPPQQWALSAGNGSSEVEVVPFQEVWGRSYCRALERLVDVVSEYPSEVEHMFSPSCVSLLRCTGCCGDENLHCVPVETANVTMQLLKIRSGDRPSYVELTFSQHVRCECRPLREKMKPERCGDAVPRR
Protocol: as §1

VEGF-A165 [7] = target: T2, VEGF-A165; assay: Surface plasmon resonance, laminin against GF; conditions: SPR; laminin protein immobilized on chip, GF flowed; Langmuir binding kinetics
Protocol: (§3) SPR analysis was performed as described previously^2. In brief, measurements were made with a Biacore 3000 SPR system (GE Healthcare). Laminin-521 or laminin α32928-3150 was immobilized via amine coupling on a C1 chip (GE Healthcare) for ˜2000 or ˜1000 resonance units (RU), respectively, according to the manufacturer's instructions. VEGF-A165, PDGF-BB, or PlGF-2 was flowed at increasing concentrations in the running buffer at 20 μL/min. The sensor chip was regenerated with 50 mM NaOH for every cycle. Specific bindings of GFs to laminin were calculated by comparison to a non-functionalized channel used as a reference. Experimental results were fitted with Langmuir binding kinetics using BIAevaluation software (GE Healthcare).

PDGF-BB [8] = target: T3, PDGF-BB; assay: Surface plasmon resonance, laminin against GF; conditions: SPR; laminin protein immobilized on chip, GF flowed; Langmuir binding kinetics
Protocol: as §3

[9] = peptide-coated plates, 30 min at 37° C., without EDTA

Sequence of FGF-2 (P09038 143-288): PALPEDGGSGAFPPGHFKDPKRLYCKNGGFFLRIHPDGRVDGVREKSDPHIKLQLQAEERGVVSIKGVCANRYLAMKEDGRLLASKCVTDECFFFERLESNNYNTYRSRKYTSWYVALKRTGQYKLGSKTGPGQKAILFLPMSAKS

GCGGSLRPAPPPISGGGYRARPAKAAATQKKVERKAPDA [FgHBD]
binding to heparin [1]: bind to heparin

RLVFALGTDGKKLRIKSKEKCNDGK [α33043-3067, laminin α3 chain LG4-derived peptide, 25 aa]
binding to PlGF-2 (PlGF-2): bound | binding to FGF-2 (FGF-2): bound | binding to VEGF-A165 (VEGF-A165 [2]): bound | binding to PDGF-BB (PDGF-BB [3]): bound | Interaction with GFs (GFs): ++ | HUVEC attachment in the presence of EDTA (HUVEC; peptide-coated plates, 30 min, 5 mM EDTA): even in the presence of EDTA | HUVEC attachment (HUVEC; [9]): promoted HUVEC attachment | Cell adhesion HUVECs (HUVEC; summary Table 2): ++ | fibroblast attachment (human lung fibroblasts; [9]): enhancement of fibroblast attachment | Cell adhesion Fibroblasts (human lung fibroblasts; summary Table 2): ++ | degree of migration of HUVEC cells (HUVEC cells): did not increase the degree of cell migration | binding to recombinant syndecans (syndecan 1-4) ([4]; ELISA, peptide-coated plate, 1 μg/mL syndecan): significant binding | Interaction with Syndecans ([4]; summary Table 2): ++ | binding to heparin ([5]; ELISA, peptide-coated plate, 10 μg/mL biotinylated heparin): bound to heparin | Interaction with Heparin ([5]; summary Table 2): ++

B1: PDGF-BB: platelet-derived growth factor-BB; Regranex in the clinic (protein)
chain: SLGSLTIAEPAMIAECKTRTEVFEISRRLIDRTNANFLVWPPCVEVQRCSGCCNNRNVQCRPTQVQLRPVQVRKIEIVRKKPIFKKATVTLEDHLACKCETVAAARPVT
wound healing in the db/db mouse ([6]; 10 μg per wound): did not significantly enhance wound healing

B2: α32928-3150: recombinant human laminin alpha 3 LG domain Ser2928-Cys3150 (linker domain and LG4 domain), 6 His (protein)
chain: HHHHHHSLNKPPFLMLLKGSTRFNKTKTFRINQLLQDTPVASPRSVKVWQDACSPLPKTQANHGALQFGDIPTSHLLFKLPQELLKPRSQFAVDMQTTSSRGLVFHTGTKNSFMALYLSKGRLVFALGTDGKKLRIKSKEKCNDGKWHTVVFGHDGEKGRLVVDGLRAREGSLPGNSTISIRAPVYLGSPPSGKPKSLPTNSFVGCLKNFQLDSKPLYTPSSSFGVSSC
binding to PlGF-2 (PlGF-2): bound | binding to FGF-2 (FGF-2): bound | binding to VEGF-A121 (VEGF-A121): did not show any binding | binding to PlGF-1 (PlGF-1): did not show any binding | binding to VEGF-A165 (VEGF-A165 [2]): bound | binding to PDGF-BB (PDGF-BB [3]): bound | Kd (VEGF-A165 [7]): 1.2 nM | Kd (PDGF-BB [8]): 10.2 nM

B3: LamLG4: laminin α-chain LG4 domain used as growth factor-binding domain (protein)
chain: SLNKPPFLMLLKGSTRFNKTKTFRINQLLQDTPVASPRSVKVWQDACSPLPKTQANHGALQFGDIPTSHLLFKLPQELLKPRSQFAVDMQTTSSRGLVFHTGTKNSFMALYLSKGRLVFALGTDGKKLRIKSKEKCNDGKWHTVVFGHDGEKGRLVVDGLRAREGSLPGNSTISIRAPVYLGSPPSGKPKSLPTNSFVGCLKNFQLDSKPLYTPSSSFGVSSCTG
binding to heparin [1]: bind to heparin

B4: VEGF-A165: vascular endothelial growth factor-A165, recombinant (PeproTech) (protein)
chain: T2 sequence (P15692 27-191 isoform P15692-4 limits assumed)
degree of migration of HUVEC cells (HUVEC cells): increases the degree of migration | wound healing in the db/db mouse ([6]; 20 μg per wound applied topically for five consecutive days): promote wound healing
